Reference: US20220002669A1 (JUNO THERAPEUTICS, published 2022)

Assays:
[1] = biological target: T1, STREP-TACTIN M2 covalently coupled to Sephadex G50 stationary phase (Streptomyces avidinii, UniProt P22629 38-163, covalently coupled to cyanogen bromide (CNBr) activated Sephadex G50 resin); experiment: loading of tagged Fab onto Strep-Tactin Sephadex G50 resin
T1 construct: Here it is immobilised on the chromatography matrix; also called immobilized Strep-Tactin reagent; selection reagent

[2] = biological target: T2, CD4 on the surface of T cells from a human donor apheresis sample (human, UniProt P01730 26-458); experiment: column affinity selection of T cells from a human apheresis sample
T2 construct: whole, on cells; also called selection marker

B1: anti-CD4 binding Fab fragment obtained from m13B8.2, heavy chain carboxy-terminally fused with a Twin Strep-Tag (Fab, V domains shown)
VH: QVQLKQSGPGLVQPSQSLSITCTVSGFSLTTFGVHWVRQSPGKGLEWLGVIWASGITDYNVPFMSRLSITKDNSKSQVFFKLNSLQPDDTAIYYCAKNDPGTGFAYWGQGTLVTVSA
VL: DIQMTQSPASLSASVGETVTFTCRASEMIYSYLAWYQQKQGKSPQLLVHDAKTLAEGVPSRFSGGGSGTQFSLKINTLQPEDFGTYYCQAHYGNPPTFGGGTKLEIKR
notes: also called anti-CD4 Fab
Question: Does B1 bind [1]?
Answer: binds

Question: Does B1 bind [2]?
Answer: binds
